± gives the standard deviation of the averaged measurements.
Assay: total protein half-life in vivo (active degradation + dilution); higher = more stable protein
[1] = E. coli NCM3722 delta-clpP delta-lon delta-hslV, growth: N-lim chemostat, doubling time 6 h
[2] = wild type E. coli NCM3722, growth: C-lim chemostat, doubling time 6 h
[3] = wild type E. coli NCM3722, growth: N-lim chemostat, doubling time 12 h
[4] = wild type E. coli NCM3722, growth: P-lim chemostat, doubling time 6 h
[5] = wild type E. coli NCM3722, growth: P-lim chemostat, doubling time 12 h
[6] = E. coli NCM3722 delta-clpP, growth: N-lim chemostat, doubling time 6 h
[7] = E. coli NCM3722 delta-hslV, growth: N-lim chemostat, doubling time 6 h
[8] = E. coli NCM3722 delta-lon, growth: N-lim chemostat, doubling time 6 h
[9] = E. coli NCM3722 delta-smpB, growth: N-lim chemostat, doubling time 6 h
[10] = wild type E. coli NCM3722, growth: C-lim chemostat, doubling time 3 h
[11] = wild type E. coli NCM3722, growth: C-lim chemostat, doubling time 12 h
[12] = wild type E. coli NCM3722, growth: N-lim chemostat, doubling time 6 h

Sequence | total protein half-life in vivo [1] [h] | total protein half-life in vivo [2] [h] | total protein half-life in vivo [3] [h] | total protein half-life in vivo [4] [h] | total protein half-life in vivo [5] [h] | total protein half-life in vivo [6] [h] | total protein half-life in vivo [7] [h] | total protein half-life in vivo [8] [h] | total protein half-life in vivo [9] [h] | total protein half-life in vivo [10] [h] | total protein half-life in vivo [11] [h] | total protein half-life in vivo [12] [h]
MDLNTLISQYGYAALVIGSLAEGETVTLLGGVAAHQGLLKFPLVVLSVALGGMIGDQVLYLCGRRFGGKLLRRFSKHQDKIERAQKLIQRHPYLFVIGTRFMYGFRVIGPTLIGASQLPPKIFLPLNILGAFAWALIFTTIGYAGGQVIAPWLHNLDQHLKHWVWLILVVVLVVGVRWWLKRRGKKKPDHQA | 6.78 | 5.72 | 10.9 | 6.18 | 13.6 |  |  |  |  |  |  | 
MDLRDLKTFLHLAESRHFGRSARAMHVSPSTLSRQIQRLEEDLGQPLFVRDNRTVTLTEAGEELRVFAQQTLLQYQQLRHTIDQQGPSLSGELHIFCSVTAAYSHLPPILDRFRAEHPSVEIKLTTGDAADAMEKVVTGEADLAIAGKPETLPGAVAFSMLENLAVVLIAPALPCPVRNQVSVEKPDWSTVPFIMADQGPVRRRIELWFRRNKISNPMIYATVGGHEAMVSMVALGCGVALLPEVVLENSPEPVRNRVMILERSDEKTPFELGVCAQKKRLHEPLIEAFWKILPNHK | 6.95 ± 1.4 | 5.47 ± 0.66 | 10.9 ± 1.1 | 5.48 ± 0.1 | 11 ± 0.99 | 6.14 ± 0.2 | 5.87 ± 0.32 | 6.22 ± 0.23 | 6.35 ± 1.1 | 2.78 ± 0.13 | 11.4 ± 3.2 | 5.9 ± 0.012
MDMDLNNRLTEDETLEQAYDIFLELAADNLDPADVLLFNLQFEERGGAELFDPAEDWQEHVDFDLNPDFFAEVVIGLADSEDGEINDVFARILLCREKDHKLCHIIWRE [P0A8L7] | 5.64 ± 0.096 | 5.72 ± 0.71 | 7.29 ± 0.12 | > 8 | 11.2 ± 3.8 | 4.35 ± 0.49 | 3.78 | 5.055 ± 0.0098 | 3.64 | 2.74 ± 0.24 | 8.89 | 3.83
MDMHSGTFNPQDFAWQGLTLTPAAAIHIRELVAKQPGMVGVRLGVKQTGCAGFGYVLDSVSEPDKDDLLFEHDGAKLFVPLQAMPFIDGTEVDFVREGLNQIFKFHNPKAQNECGCGESFGV | 4.64 ± 0.11 | 3.99 ± 0.5 | 2.58 | 2.69 | 4.79 ± 0.6 | 2.79 |  | 3.64 | 2.14 | 1.94 ± 0.049 | 4.5 | 1.86 ± 0.16
MDNAVDRHVFYISDGTAITAEVLGHAVMSQFPVTISSITLPFVENESRARAVKDQIDAIYHQTGVRPLVFYSIVLPEIRAIILQSEGFCQDIVQALVAPLQQEMKLDPTPIAHRTHGLNPNNLNKYDARIAAIDYTLAHDDGISLRNLDQAQVILLGVSRCGKTPTSLYLAMQFGIRAANYPFIADDMDNLVLPASLKPLQHKLFGLTIDPERLAAIREERRENSRYASLRQCRMEVAEVEALYRKNQIPWINSTNYSVEEIATKILDIMGLSRRMY [P0A8A4] | 5.48 ± 1.3 | 5.64 ± 0.63 | 6.76 ± 0.45 | 5.48 ± 0.51 | 10.7 ± 0.8 | 4.186 ± 0.013 | 4.0273 ± 0.0032 | 4.39 ± 0.15 | 3.98 ± 0.32 | 3.15 ± 0.21 | 9.92 ± 1.4 | 4.1527 ± 0.0038
MDQAGIIRDLLIWLEGHLDQPLSLDNVAAKAGYSKWHLQRMFKDVTGHAIGAYIRARRLSKSAVALRLTARPILDIALQYRFDSQQTFTRAFKKQFAQTPALYRRSPEWSAFGIRPPLRLGEFTMPEHKFVTLEDTPLIGVTQSYSCSLEQISDFRHEMRYQFWHDFLGNAPTIPPVLYGLNETRPSQDKDDEQEVFYTTALAQDQADGYVLTGHPVMLQGGEYVMFTYEGLGTGVQEFILTVYGTCMPMLNLTRRKGQDIERYYPAEDAKAGDRPINLRCELLIPIRR [P0ACI0] | 5.25 ± 0.62 | 6.47 ± 0.27 | 9.41 ± 0.68 | 5.31 ± 0.06 | 11.8 ± 0.37 | 5.39 ± 0.29 | 5.7 ± 1.1 | 5.49 ± 0.38 | 5.37 ± 0.28 | 2.92 ± 0.065 | 11.3 ± 0.12 | 5.15 ± 0.4
